Measurements taken from the domain aggregation screens of Martell et al. (2025).

test: soluble fraction after stress (log2 fold change); higher = more stays soluble; pooled small domains, quantitative proteomics; conditions: stress: 50 degC
Procedure, shortened: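 The measure of aggregation propensity here is the base-two logarithm of the fold change in the soluble amount of each protein after stress. A higher value means more of that protein stays in solution. Stress was applied at 50°C to pooled libraries of small protein domains, read out by high-throughput quantitative proteomics.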

Sequence | soluble fraction (log2)
HMRGADNAASILKEVGPHPEDGKPITVRSGRYGPYVKHGTTNATLPKDIKPEEITLDEAIALINERVAKG | -0.243
HMQATETFSLIVPMSSAGNRLDVVLSELLPNFSRKKIQDAIKNGDATLNGKAPKIRDKVYGGENITITLIL | -0.432
HMSTASPEELRQTPERRRLIEYLREHGGHGRTSEIAAALGIDDSTASRLLRRLADNGLIVRTQYGEYTLLQ | 0.0183
HMATIIGSIGIVTQKVGLTGVPGRVYVNNESWAAISANGKEIENDTQVIVVKIDGATLIIEKKG | -1.47
HMGAGKVVDGVTYDFVFDVDVADGQPPLRLPYNRGEDVYQAAERFILRNELPATYREQIVNFIVQNTPG | -0.131
HMALQDKYKELTDAATAAGVTDLQVREQDNVLYIDGTAPSGAVKDQLWAIYDKIDPNFVSGDLVLNVNVD | 0.0655
HMQAGPEDIIRAKLKTAMPEAQIISIRPTPAGLYQVNAKGYESVFVTADGRYLFQGDLLEIQGDRIVNL | -0.123
HMKAPDSQYKPLTDFQTDASFQKLDAYLRNRYPAMLANAVVYDVLRTPDAISYRVNYQVDNKMITINAAVT | -0.126
HMRRRTLRQGATGSDVHAVQRLLNVDGAGLRTDGIFGPATERAVIAYQRKHGLAVDGVVGRETWTALLG | -0.61
HMAGPRRRLLDAAIDRAAERGLGDLSLRALAEELGTSHRMLSHHFGSKDGLWLAIVEEVERRQ | -0.952
HMFYNSSDNAYKILEINKSATVDEIKAAYRKMAKKYHPDKVIHLGQEHQKGAEEKFRQVQEAYEELQKERG | 0.0887
HMTQLEVDLFERLITISGVGPRLALAVLSGLEPPDLLRAIQDSDIVRLQGIPGVGKKTAERISLELKDKLS | -0.963
HMTEKIVFNIDGQTGRIDKILADFMTGTSRSQIQAWVKDGNLMVNDKAVKSNYKVQDGDLLELTIPEPEQ | -0.171
HMRVPQWLVDKIAAAGIDTHRSGPALKALAAKAGTPEQLDQAIARAKALRRRTGSTQSLNVGLLGSILEGT | -0.106
HMGDWITGTVTRIADNGWGTFQPENAHNTVSIPPKMVADNQLKEADSIKIIAEPSPDGTKTFIKAISRE | -0.00712
HMGVSLKEIQENLSLIDDAAQKLASGQGTVDDAVGMGNAGKDIYDNIEGYVSSPKEFINGVLSSV | -0.104
HMSQDEKITNYIYEGNKNTQTEAFVEAEKSYRKALSLSPEKPEALYNLGNTHFLDKQYDEASQRFF | 0.0647
HMDFFVLVGAYKTPDEAETIRAKIAFSGLDSSVSHGNDGRYRVRIGPFHSEGDARKAQSTLRANDIPGQII | -0.0926
HMTRETTQAWWEARQTLPSGEQRSAASLSQEASHVRRFYRWAMQQGLTDRNPADWLPDVRQK | -0.232
HMGVHSVVPDIKNKHYGEAKAILAANGLSIEISDSIYDRSVAPGTVVESWPKAGAIVKGDRAVFVTLTAF | -1.28
HMNNQILYERLRDLRERNHFTQAFVSSKLNIGRATYSNYERGKRTPSLDVIMDLASFYKVPFTYF | -0.0166
HMKNKRERLGIISEILRMQVIGSQEELLDILRAKGYDVTQATLSRDLKVLKVAKTPLSNGAYKYVLPPQ | 0.0519
HMRWAAIMGREVAAHSTPESLVEGKLHIRTDTTAWATQLRLMSADIVRRLNEVLGEGTVLEVDVRG | -1.96
HMKTKMTPELTTVIEAQIQKEWSPEQISGWLKKTHPVSVSHQRIYQHIQADRQQGGTLHQHLRQAK | 0.163
HMKEVKAPMPGMVLRVEVAPGQEVQEGDPLLVLEAMKMENNLKSPASGTIKSVHVEAGKAVEKGAVLVVF | -0.0671

Sequence | soluble fraction (log2)
HMNIEEQVVAEVLVKDFMKQLTPRDIHILELRKNGYTYQEIAGQLGYHTHSAVKKRVDRLAEQWLAYTQGH | -1.53
HMAVSDAAEEYGKAGTPLVILAGKEYGSGSSRDWAAKGPYLQGVRAVLAESYERIHRSNLVGMGIVPLTYK | 0.0654
HMTPEPVREALTFQEGRVFALAAKNMTNAEIAQSLSLKLKTVENYMSIIYQKLALKNRYELLVYARKSGV | -0.631
HMADRLITLSEVASLLRVSRHTVQAWISPSSPNHRPEFAIMARHAGRRTVFIEAEVTAWLDQRRG | -1.95
HMSNNLAYSQFLDRVKNKEIRKVEIRGQSIVGYTSNNETFKTYAPLNDPKMYDELLTNDVQVQVDPP | 0.0519
HMSPREDQQSRKQHILEAAAVLFAERGYYKTTTADVARAVGVTQPYVFHFFKSKEELYLAVL | -0.0115
HMYNKKAYVNTNSDFLNVRSEASTESSVVDKLARGTEVNIVGNIQNGFYPIVLNEKNAWVSSDWISFEKPT | 0.227
HMKTTKRERARAKLIQLLENEDRPAKEIYAGLGDIGVGSRTVEKVKKELQVTTYRSGGSWYWSLPKP | -0.169
HMAKIDSRKALIDQLTTTFTRAQLEELITKNELSTDARFFLSQWNAKGWIRKTAKNVYEKLR | -0.134
HMILSTNFFRHIVPKEYQTSYGTMKKWLTDHNVIGTNSIPQGIGYRIPTQGLSSTFSFKVVDVLPDR | -0.525
HMIRILIVDDSAFMRKLLSDVFEEDKNFVVVDTARNGQDAVEKVKRLKPDLVTMDVEMPVMDGLTAVEIIM | -0.36
HMDVADITGTRKAAILLLTMDEELSKELLKEFERHEIEAIGKEIANIKYIPENIVKQVHSEFLKNINKS | -0.212
HMSELLIVGSEQDNTRLDRFLADQYEEYTRSFLQKLIDQGNVSINGISVKKSGIKLKENDEIAVTLPEPQ | 0.389
HMLTLDEKRRLQIMRVQVALTSLGLYNGRVDGVLNAETKLGLEFFQDLKGLPKSGTMTTPTLNALGVPA | -0.423
HMEELLVAVKADGSIWADGRPITPDGLASFIDSKPADAVLNLAVDKKAPFAAFVKVVDVAKEKKSGRFVIR | 0.0577
HMNFMDGFQSFFQESGAMNRPMTADVVSYRLPDGTVQQGNSTMRGLMDQYLKSIGQSPTTGVP | 0.00775
HMLDPVLQREKDESFTDYHIRLFKNKDTYHIDTKTIATLLNKDQGTNYDESKWRKDFKQYERWNDYIMSKN | 0.145
HMIADPLVINKLMDSMALAINDYNPDSVEPVLDELRQYFSENQLRELSKAMDDFDFDEALNALTLLRT | -0.382
HMSMLSQERQSLILDIIKEQGSVTVTRLTEILQSSESTVRRDLSYLASKGKINKVHGGATALG | -0.206
HMDEKSGWLHLAPHEGALRAALYAEHAVQEERTAPDGSQWLRLVLREKHYHQIQSKYNRRLTLHTQPDPS | 0.113
HMPLITLSAEIQSEQIGQRLDQTLAELFPEYSRSRLKTWIEADLVKLNNQIVNIPREKVLGGEHVEITVDI | -0.611
HMQNMVYVATKDIPAGGVIDQDSVSKTAISTSIDTSLYITDDDLGKIAVVNISQGQSVFSNMVGT | 0.0238
HMPDPLYLINGKIVNKSDFNNIDPRSIQSIEVLKANKALEAFGNDGKNGVIKITLKSSNDQM | 0.0749
HMAQQEMEIIPLRHRQVEQVMPTLRPLLEPGAALSGMNNQLILRASRKNREEIKQALAVIDT | 0.172
HMANKLTSTNLAKQHKMGLSEMYAELMNSGYLIEKDGKYELTPLGISIGGESKPNRYKKGEFYFLWPSDIS | -0.29

Sequence | soluble fraction (log2)
HMTALPPNVSIDSDERRLLEAIGFDPVDMDVLARDGQFSSVDLFRLLVSLELKGLVENQHGAYQRL | -1.31
HMYRSGGYTGAGKDDEEAGVVHRNEFVNTADAVRNPHVKRFLDVFNVAQKDGTIRMLNTSQILERARLDA | 0.123
HMENNIILNYVKDNLNITEKDAKDLIELLGSDYYHIKNETNKIAAFLDGQPYSFEKIKNLISIDKEY | 0.0808
HMQDSSGENNPQSKLTQQQVDLLMKDLKETNVEFDKLAEKYNVSIKTIRNVNTGIAWRKNDITYPIREP | -0.204
HMPFGIYGGKVSSLDDLKDKAAVLVPNDVSNEARALLLLEAQGLIKLKEGVGLEATRNDIVEN | ≥ 0.62
HMGNKWKPIILYLLSNGSMRFGMLNALIPTISKKVLTNQLKELENDGLLLRQSFAEIPPRVEYSLTEKA | -1.58
HMVLMPIDALRGSSSSSEMRIAAVKFSPSKGWYFSLQERSDEGSSYYEQKVASDGSVSERVKVR | -0.561
HMAGTAMRATTAVNVRSGAGTNYSRIGLLQAGEQIQALSSKNGWTQVSYKGRTGYVASAYLASL | -0.309
HMIMHLNQIIRNKRLAAGLTQEALAQKVGVTAPAVSKWEKGISYPDITLLPILARNLNTDVNTLLDFSA | -0.641
HMPDPHSEARNIVLNQLNFMPRSRKELETALAKRNIEADVAKIVLDRFEEIGMVDDAAYAEL | 0.159
HMLEINTIIGNNLKKIRQEKKLTLDELAGITGVSKGMLSQIEKGTTNPTINTIWKISNGLNVPYTYLLEDD | 0.183
HMSDPSAQADALFNEGKTAEAFNVLLRLIEDSPEDQREDYRVRLLDLFRIAGNTPEVKAARRRLSALLM | -0.252
HMTDLVVGLAGITLEPLRPAGKAEFNGSVVDVVSLGDYIEKSTAIQIVEIEGNRIVVHHGED | -0.0705
HMPGRKKLAIIYKNDYIGAFNLADSYRDSYEVSMYAFPKKVGKLLNRLELQGFNAYVIYDKDNEENNFNTI | -1.65
HMDLRVKRTNKMIMEAFIHLVEQKGYDNITVQEIADEAMINRATFYAHFKDKQDLYDHIFKQAI | -0.762
HMTVDIADALRVLGLSDAPDWSDVRAAHRRAIVRTHPDAGGSAGDAARVNQAFDLLRKISGNGERPIPG | 0.154
HMDAVTYAKGSSGETVREIQQLLLDWGYYSGEVDGIFGSRTEDAVEYFQRKNGLTVDGKVGPATLEALGIS | -0.0183
HMKELLQEMIMDILRAIASPNIDIKRKTLDLVLDLITPRNIDNVTGMLKTEVVKSQSENTSDVG | -0.623
HMSVALSENIKTRRKALKMSQEYVAEQLDISRQAVAKWEAGKSEPTTENLVKLAALFEMSVSELVE | -0.369
HMAYLTGFHAIEELIRAGKAKGPLLVANAGPRARTIMSLATDNKIRIDRLGEHELNRLAPGNRGIALYVE | 0.13
HMKDYQGNILIQSEGDRIDKFLFKYFNSFSRTKIKNHIINGNILVNDKNTIPAYVLKINDKISYDLSTSVK | -1.04
HMEIIMIVITKPSITDERIAEIVAVIERNGGVQAHVSKGTDRTVIGIIGKAEPTLAEHLRQMKGVENVIKI | 0.0636
HMVVYDAELLLNINPGMSYEEVKEMLGDPGMIIAGNDAENSVYRWSTGGISFMGRFENGALIRKSIISP | -0.621
HMNQASLTYSEFIANVESKAITRVTISGDTISGILADGKPFQTIYPMADLELLPILRRSGVDINVKEVQ | -0.117
HMQPQLFRVIADDGLNIRSGPGPEYPPVAPMLRKGTQVELLQAGDRWSKVEVVGSTDVEGWVNQRYLQAV | 0.0476
